Source: the nanobody polyreactivity screen of Harvey et al. (2022)

assay: yeast display, Sf9 membrane polyspecificity reagent, FACS + sequencing; frameworks hold sequencing errors
Summary of the method: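 Synthetic nanobody libraries on Saccharomyces cerevisiae BJ5465 were galactose-induced for 36–48 hours, stained 1 hour at 4 °C with 10% biotinylated, detergent-solubilized Sf9 membrane reagent and enriched on streptavidin microbeads. FACS then separated cells into low and high (top ~1%) gates by anti-HA (expression) and streptavidin (reagent binding) fluorescence. Genes were colony-PCR amplified, MiSeq 2 × 250 sequenced and CDR-length filtered. A clone's polyreactivity label is that of its gate of origin.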

Sequence | polyreactivity (PSR sort gate)
QVQLVESGGGLVQAGGSLRLSCAASGRIFWYYAMGWYRQAPGKERELVARISSSGGSTYYADSVKGRFTISRDNAKNTVYLQMNSLKPEDTAVYYCAAEHYILYDYLWAYDYWGQGTQVTVSS | high polyreactivity
QVQLVESGGGLVQAGGSLRLSCAASGRIFWYYDMGWYRQAPGKERELVAAISQRGGSTYYADSVKGRFTISRDNAKNTVYLQMKSLKPEDTAVYYCAKRNPYWATREYWGLGTQVTVSS | high polyreactivity
QVQLVESGGGLVQAGGSLRLSCAASGRIFWYYGMGWYRQAPGKERELVAAITSGGRTYYADSVKGRFTISRDNAKNTVYLQMNSLKPEDTAVYYCAKGYVRYPSKGYTFDYWGQGTQVTVSS | high polyreactivity
QVQLVESGGGLVQAGGSLRLSCAASGRIFWYYTMGWYRQAPGKERELVAAISNGGSTYYADSVKGRFTISRDNAKNPVYLQMNSLKPEDTAVYYCAADNFRNPDYYYWGQGTQVTVSS | high polyreactivity
QVQLVESGGGLVQAGGSLRLSCAASGRIFYAYAMGWYRQAPGKETELVAAITWRGGRTFYADSVKGRFTISRDNAKNTVYFQMNSLKPEDTAVYYCATRGAPYGMDYWGQGTQVTVSS | high polyreactivity
QVQLVESGGGLVQAGGSLRLSCAASGRIFYAYTIGWYRQAPGKERELVAAISGSGSTYYADSVKGRFTISRDNAKNTVYLQMNSLKPVDTAVYYCAADVTGGRKYDYWGQGTQVSVSS | low polyreactivity
QVQLVESGGGLVQAGGSLRLSCAASGRIFYDNTMGWYRQAPGKERELVATISSAASTNYADSVKGRFTISRDNAKNTVYLQMNSLKPEDTAVYYCAAEWSTYGYQVLPVDYDYWGQGTQVTVSS | low polyreactivity
QVQLVESGGGLVQAGGSLRLSCAASGRIFYDNTMGWYRQAPGKERELVAVISWSTGGTYADSVKGRFTISRDNAKNTVYLQMNSLKPEDTAVYYCATPLGYGPDLDYWGQGTQVTVSS | low polyreactivity
QVQLVESGGGLVQAGGSLRLSCAASGRIFYDYAMGWYRQAPGKEREFVAAIRWRGGSTYYADSVKGRFTISRDNAKNTVYLQMNSLKPEDTAVYYCATKSYYKFGYWGQGTQVTVSS | high polyreactivity
QVQLVESGGGLVQAGGSLRLSCAASGRIFYFNAMGWNRQAPGKERELVADISSGGRTNYADSVKGRFTISRDNAKNTVYLQMNSLKPEDTAVYYCNADPYTSSGGYRGYDFDYWGQGTQVTVSS | low polyreactivity
QVQLVESGGGLVQAGGSLRLSCAASGRIFYFNAMGWYRQAPGKERELVATITYIGGSTHYADSVKGRFTISRDNAKNTVYLQMNSLKPEDTAVYYCAVRDGKDTDTYWYGSWGQGTQVTVSS | low polyreactivity
QVQLVESGGGLVQAGGSLRLSCAASGRIFYFYAMGWYRQAPGKERELVASISSGGITNYADSVKGRFTISRDNAKNTVYLQMNSLKPEDTAVYYCNAGYASGKYSGGYLYGYWGQGTQVTVSS | low polyreactivity
QVQLVESGGGLVQAGGSLRLSCAASGRIFYGNAMGWYRQAPGKERELVAAITRSGGSTYYADSVKGRFTISRDNAKNTVYLQMKSLKPEDTAVYYCAKYRPGIPYYQYGSWGQGNQVTVSS | high polyreactivity
QVQLVESGGGLVQAGGSLRLSCAASGRIFYGNVMGWYRQAPGKERELVAAISGGGSTNYADSVKGRFTISRDNAKNTVYLQMNSLKPEDTAVFYCAADSRPWGSSMDYWGQGTKVTVSS | low polyreactivity
QVQLVESGGGLVQAGGSLRLSCAASGRIFYGYAMGWYIHAPGKERELVAAITYSGGITYYADSVKGRFTISRDNAKNTVYLQMNSLKPEDTAVYYCATSKSSVTGPDLDYWGQGTQVTVSS | high polyreactivity
QVQLVESGGGLVQAGGSLRLSCAASGRIFYGYAMGWYRQAPAKERELVAAISWRGGRTYYADSVKGRFTISRDNAKNTVYLQMNSLKPEDTAVYFCNKDFPPQGQLRNMYYWGQGTLVTVSS | high polyreactivity
QVQLVESGGGLVQAGGSLRLSCAASGRIFYGYAMGWYRQAPGKERELVAAIDWSGGSTYADSVKGRFTISRDNAKNTVYLQMNSLKPEDTAVYYCATDWVTSQQPYYWIYEYWGQGTQVTVSS | low polyreactivity
QVQLVESGGGLVQAGGSLRLSCAASGRIFYGYAMGWYRQAPGKERELVAAIRWYVGNTYYADSVKGRFTISRDNAKNTVYLQMNSLKPEDTAVYYCNARTEYASSRYYYWGQGTQVTVSS | high polyreactivity
QVQLVESGGGLVQAGGSLRLSCAASGRIFYGYAMGWYRQAPGKERELVAAITRGVSTYYADSVKGRFTISRDNAKNTVYLQMNSLKPEDTAVYYCAKDRRVRMDSWGQGTQVTVSS | low polyreactivity
QVQLVESGGGLVQAGGSLRLSCAASGRIFYGYAMGWYRQAPGKERELVAGISYRGARTYYADSVKARFTISRDNAKNTVYLQMNSLKPEDTAVYNCNAVPYYPFAFGALDYSGQGTQVTVSS | high polyreactivity
QVQLVESGGGLVQAGGSLRLSCAASGRIFYGYAMGWYRQAPGKERELVASISRRGSSTYYADSVKGRFTISRDNAKNTVYLQMNSLKPEDTAVYYCAAGYYPFNYWGQGTQLTVSS | high polyreactivity

Sequence | polyreactivity (PSR sort gate)
QVQLVESGGGLVQAGGSLRLSCAASGRIFYGYAMGWYRQAPGNERELVAAISSSGGSTYYADSVKGRFTISRDNAKYTVYLQMNSLKPDDTAVYYCNAQLYRPGYWYDYWGQGTQVTVSS | high polyreactivity
QVQLVESGGGLVQAGGSLRLSCAASGRIFYGYTMGWYIQAPGKERELVAAISKHAGSTYYSDSVKGRFTISRDNAKNTVYLQMNSLKPEDTAVYYCAKDSSVQAYYGYWYTSTDDYWGQGTQVTVSS | low polyreactivity
QVQLVESGGGLVQAGGSLRLSCAASGRIFYGYTMGWYRQAPGKERELVAAITQRGGNTHYADSVKGRFTISRDNAKNTVYLQMNSLKPEDTAVYYCAAKYYPYVRRVQYYYWGQGTQVTVSS | high polyreactivity
QVQLVESGGGLVQAGGSLRLSCAASGRIFYHNAMGWYRQAPGKERELVAAITWSGGSTYYADSVKGRFTISRDNAKNTVYLQMNSLKTDDTAVYYCNALSNRYYSKLGSWGQGTQVTVSS | high polyreactivity
QVQLVESGGGLVQAGGSLRLSCAASGRIFYHNTMGWYRQAPGKERELVAAIRSGSSSYYADSVKGRFTISRDNAKNTVYLQMNSLKPEDTAVYYCNARPWYSWGVDYDYWGQGTQVTVSS | low polyreactivity
QVQLVESGGGLVQAGGSLRLSCAASGRIFYHYAMGWYRQAPGKERELVATIRRRGSSTYYADSVKGRFTISRDNAKNTVYLQMNSLKPEDTAVYYCAAGPTTNRYNYWGQGTQVTVSS | high polyreactivity
QVQLVESGGGLVQAGGSLRLSCAASGRIFYINAMGWYRQAPGKERELVASITGSGGRTYYADSVKGRFTISRDNAKNTVYLQMNSLKPEDTAVYYCNADLYVGYLYYLYDYWGQGTQVTVSS | low polyreactivity
QVQLVESGGGLVQAGGSLRLSCAASGRIFYINVMGWYRQAPGKERELVAGITWIGGSTYADSVKGRFTISRDNAKNTVYLQMNSLKPEVTAVYYCNADPDFTVYRYLWPEGVEYWGQGTQVTVSS | low polyreactivity
QVQLVESGGGLVQAGGSLRLSCAASGRIFYIYAMGWYRQAPGKERELVATISVSGGRTYYADSVKGRFTISRDNAKNTVYLQMNSLKPEDTAVYYCAKECRFNIHKWYDYWGQGTQVTVSS | low polyreactivity
QVQLVESGGGLVQAGGSLRLSCAASGRIFYIYAMGWYRQEPGKERELVAAISRRAASTYYADSVKGRFTISRDNAKNTVYLQMNSLKPEDTAVYYCAADYYDRKVEYYYWGQGTQVTVSS | high polyreactivity
QVQLVESGGGLVQAGGSLRLSCAASGRIFYIYTMGWYRQAPGKEREFVAGINWNGGSTYYADSVKGRFTISRDNAKNTVYLQMNSLKPEDTAVYYCNADQYWDRYYYWGQGTQVTVSS | low polyreactivity
QVQLVESGGGLVQAGGSLRLSCAASGRIFYKNAMGWYRPEPGKEREVVAAISSSGTRTYYADSVKGRFTISRENAKNTVSLQMNSLKPEDTAVYYCAAALGWYSAFGYWGQGTQVTVSS | high polyreactivity
QVQLVESGGGLVQAGGSLRLSCAASGRIFYKNDLGWYRQAPGTETELVATLTYSDGTTYYADSVKGRFTISRDNAKNTVYLQMNSLKPEDTAVYYCAAQTDSVESDYWGQGTQVTVSS | low polyreactivity
QVQLVESGGGLVQAGGSLRLSCAASGRIFYKYAMGWYRQAPGKERELVAGITGSGGSTYYADSVKGRFTISRDNAKNTVYLQMNSLKPEDTAVYYCAKRVSYDYWGQGTQVTVSS | low polyreactivity
QVQLVESGGGLVQAGGSLRLSCAASGRIFYKYVMGGYRQAPGKARVLVAAINRSGGTTYYADSVKGRFTISRDNAKKTVYLQMNSQKPEDTAVYYCNATLPAYWPYYYYQGGDDYWGQGTQVTVSS | low polyreactivity
QVQLVESGGGLVQAGGSLRLSCAASGRIFYKYVRGCYRQAPGKDRELVATITSGGSTYYADSVKGRFTISRDNAKNTVYLQMNSLNPEDTAVYYCAARKYYSRAYDYWGQGTQVTVSS | high polyreactivity
QVQLVESGGGLVQAGGSLRLSCAASGRIFYLNAMGWYRQAPGKERELVATISSGGSTNYADSVKGRFTISRDNAKNTVYLQMNSLKPEDTAVYYCARKSLRYSYVYRDYWGQGTQVTVSS | low polyreactivity
QVQLVESGGGLVQAGGSLRLSCAASGRIFYLYAMGWYRQAPGKERELVAAISVSGARTYYADSVKGRFTISRDNAKNTVYLHMNSLKPEDTAVYYCATVGPYRSRRAGDYWGQGTQVTVSS | high polyreactivity
QVQLVESGGGLVQAGGSLRLSCAASGRIFYLYAMGWYRQAPGKERELVAAISWGGGSTYYADSVKGRFTISRDNAKNTVYLQMNSLKPEDTAVYYCAAAVTTWVEYDYWGQGTQVTVSS | low polyreactivity
QVQLVESGGGLVQAGGSLRLSCAASGRIFYNNVMGWYRQAPGKERELVAAISGNGGSTYYADSVKGRFTISRDNAKNTVYLQMNSLKPEDTAVYYCAKGSHSYLISTGDYWGQGTQVTVSS | low polyreactivity
